The source of these data is patent US7387779B2, “Anti-angiogenic proteins and fragments and methods of use thereof” (Beth Israel Deaconess Medical Center, priority 1998, dated 2008).

Assay [1] concerns CD31-positive tumor vasculature. As to the kind of experiment: CD31 immunohistochemistry of xenograft tumors. The conditions noted are these: mouse, in vivo. How it is done: Mice from the tumor studies were sacrificed after 10-20 days of treatment. Tumours were excised and fixed in 4% paraformaldehyde. Tissues were paraffin embedded and 3 μm sections were cut and mounted on glass slides. Sections were deparaffinized, rehydrated and treated with […] protease XXIV (SIGMA Chemical Co., St. Louis, Mo., USA) at 37° C. for 5 minutes. Digestion was stopped with 100% ethanol and sections were air dried and blocked with 10% rabbit serum. […]
CD31 immunostaining was used to determine the intra-tumoral microvessel density (MVD) in frozen histological sections of the PC-3 tumor xenografts, using a rat anti-mouse […] monoclonal antibody (PharMingen, San Diego, Calif., USA) with a standard streptavidin-biotin-peroxidase detection system (Vectastain ABC Elite Kit, Vector Labs, Burlingame, Calif., USA). […] MVD was assessed by scanning the tumor at low power magnification, then identifying three areas at the tumor periphery which contained the maximum number of discrete microvessels, and then counting individual microvessels on a 40× field. The mean microvessel density was compared among treatment groups and analyzed using the Student's t-test.

Assay [2] has as its system HPE cells. In words: Proliferation, methylene blue staining. In kind it is cell-based, human. Here is the method:
In the methylene-blue staining method, 7000 cells were plated into each well of a 96-well plate, and treated as described above. Cells were then counted using the method of Oliver et al. (1989, J. Cell. Sci. 92:513-8). After 48 hours of treatment, all wells were washed with 100 μl of PBS, and the cells fixed with 10% formalin in neutral-buffered saline (Sigma Chemical Co., St. Louis, Mo., USA). The cells were then stained with 1% methylene blue (Sigma) in 0.01M borate buffer, pH 8.5. Wells were washed with 0.01M borate buffer, and the methylene blue extracted from the cells with 0.1N HCl/ethanol, and the absorbance measured in a microplate reader (Bio-Rad, Hercules, Calif., USA) at 655 nm. Polymyxin B (Sigma) at a final concentration of 5 μg/ml was used to inactivate endotoxin (Liu, S. et al., 1997, Clin. Biochem. 30:455-63).
Endothelial cell proliferation was performed by ^3H-thymidine incorporation or methylene blue staining as described above in Example 25. C-PAE cells (passages 2-4) were grown to confluence and kept contact inhibited for 48 hours. 786-O, PC-3 and WM-164 cells were used as non-endothelial controls, and were cultured as described in Example 25, above. HPE (human primary prostate epithelial cells) were cultured in keratinocyte-SFM supplemented with bovine pituitary and recombinant human EGF (Life Technologies/Gibco BRL, Gaithersburg, Md., USA). […]

The subject of assay [3] is HUVEC cells. In words: Cell surface labeling with biotinylated Tumstatin-44-131. It counts as binding, human. The conditions noted are these: streptavidin-FITC. How it is done:
Recombinant E. Coli-expressed Tumstatin-44-131 was biotinylated using Sulfo-NHS-LC-Biotin (Pierce Chem. Co). Tumstatin-44-131, in a buffer containing 10% DMSO and 5% D-mannitol, was incubated with 12 M excess of Sulfo-NHS-LC-Biotin overnight at 4° C. The biotinylated Tumstatin-44-131 precipitated out of solution during this incubation. The precipitate was washed twice with distilled water, resuspended in DMSO, and then mixed 1:1 with distilled water to obtain a final concentration of approximately 4 mg/ml. The biotinylated Tumstatin-44-131 was stored at 4° C.
For cell surface labeling, subconfluent HUVEC cells were removed from the flask using EDTA with light trypsinization, and then washed twice with DMEM containing 2% BSA. Cells were then resuspended in DMEM/BSA and incubated for 1 hour at 4° C. with either biotin-labeled Tumstatin-44-131 or the product of a mock biotin reaction run without Tumstatin-44-131. Cells were then washed twice with DMEM/BSA and then incubated with streptavidin-FITC (“Neutravidin-FITC”, Pierce Chem. Co) for thirty minutes at 4° C. Samples were then viewed on a Nikon Eclipse E600 fluorescent microscope and analyzed by flow cytometry.

Assay [4] has as its system PC-3 cells. In words: MTT cell viability assay. It counts as cell-based, human. The conditions noted are these: 0-50 μg/ml. How it is done: Cell viability was measured by MTT assay, as described above.
The effects of Tumstatin-44-131 and Tum-5-125-C-A on cell viability of C-PAE cells were not seen in control PC-3 and DU-145 cells, as shown in FIGS. 52C and 52D. […] The activity of Tumstatin-44-131 is therefore specific to endothelial cells.

B1: Canstatin: NC1 domain of the α2 chain of Type IV collagen (SEQ ID NO:6) (protein, listed as Homo sapiens)
chain: VSIGYLLVKHSQTDQEPMCPVGMNKLWSGYSLLYFEGQEKAHNQDLGLAGSCLARFSTMPFLYCNPGDVCYYASRNDKSYWLSTTAPLPMMPVAEDEIKPYISRCSVCEAPAIAIAVHSQDVSIPHCPAGWRSLWIGYSFLMHTAAGDEGGGQSLVSPGSCLEDFRATPFIECNGGRGTCHYYANKYSFWLTTIPEQSFQGSPSADTLKAGLIRTHISRCQVCMKNL
As to B1, the “CD31 staining of tumor vasculature, treated vs control” value in assay [1] is listed as “decrease in CD31-positive vasculature”.

B2: Tumstatin: NC1 domain of the α3 chain of type IV collagen, residues 1-244 (SEQ ID NO:10) (protein, listed as Homo sapiens)
chain: GLKGKRGDSGSPATWTTRGFVFTRHSQTTAIPSCPEGTVPLYSGFSFLFVQGNQRAHGQDLGTLGSCLQRFTTMPFLFCNVNDVCNFASRNDYSYWLSTPALMPMNMAPITGRALEPYISRCTVCEGPAIAIAVHSQTTDIPPCPHGWISLWKGFSFIMFTSAGSEGTGQALASPGSCLEEFRASPFLECHGRGTCNYYSNSYSFWLASLNPERMFRKPIPSTVKAGELEKIISRCQVCMKKRH
For the molecule B2, in assay [2], the “effect on proliferation of HPE cells” value is “no inhibitory effects”.

B3: Tumstatin-44-131: residues 44 to 131 of full-length Tumstatin (SEQ ID NO:33) (protein)
chain: FSFLFVQGNQRAHGQDLGTLGSCLQRFTTMPFLFCNVNDVCNFASRNDYSYWLSTPALMPMNMAPITGRALEPYISRCTVCEGPAIAI
modifications: Tumstatin-45-132 (amino acids 45-132 of SEQ ID NO10)
For the molecule B3, in assay [3], the “binding to the endothelial cell surface” value was “binds the surface of endothelial cells”. Further, the “effect on viability of PC-3 cells” value in assay [4] was “not seen”.
